We go through 1 molecule from US20130217122A1, “Expansion of Interferon-Gamma-Producing T-Cells Using Glypican-3 Peptide Library” (The Trustees of the University of Pennsylvania, priority 2012, published 2013).

The assay deals with T1, human HLA-A2.1 on T2 cells (human).
T1 construct: whole, on cells; Empty or peptide-receptive HLA-A2.1 on TAP-deficient T2 cells; also called HLA-A*0201; class I MHC molecules
In words: T2 binding assay (HLA-A2 on T2 cells, flow cytometry). In general terms: A flow cytometer gives signals particle by particle.

B1: Glypican-3 136-145 (SLTPQAFEFV) (peptide)
peptide: SLTPQAFEFV
notes: Synthetic 10 mer of human glypican-3 (NP-004475); also called GPC3 136-145; GPC3136-145
For the molecule B1, the binding result was “binds”.
